Reference: patent US20230242598A1, “FUNCTIONAL POLYPEPTIDES AND USE THEREOF” (priority 2020, published 2023)
Where two headings read alike, the source gives them in different places.

Legend:
[1] = tested on: HeLa; conditions: cited from earlier work
[2] = tested on: mice; conditions: i.p.; cited from earlier work
[3] = tested on: smooth muscle cell; conditions: Frew et al. 2008; cited from earlier work
[4] = tested on: L1210; conditions: Kobayashi et al. 1994; cited from earlier work
[5] = tested on: Plasmid DNA (pTAC-1); assay: Cleavage of DNA by natural SOR, agarose electrophoresis; assay type: biochemical; conditions: SOR 8.8 μg/mL, with or without EDTA 12.5 mM, room temperature, 24 hours
Description: Plasmid DNA (pTAC-1, 4 ng, BioDynamics Laboratory, Inc.), or the plasmid DNA and EDTA (12.5 mM) were added to and mixed with a hydrophobic interaction chromatography fraction containing SOR (8.8 μg/mL) or a Tris-HCl buffer (pH 8.3) containing 0.1 M NaCl. The mixture was left at room temperature for 24 hours, separated by agarose electrophoresis, stained with ethidium bromide (15 min), and subsequently observed under UV light (260 nm). Thermo scientific GeneRuler 1 kb DNA Ladder (Thermo Fisher Scientific Inc.) was used as a marker.

[6] = tested on: mice (ddY, male); assay type: in vivo; conditions: i.c.v.
Description: Toxicity in mice was assessed by intracerebroventricularly injecting varying concentrations of SOR to mice (ddY, male, 3 to 4 weeks old, Japan SLC, Inc.) (Sakai et al., J Pharmacol Exp Ther. 2001; 296(2):650-8). […] […].

[7] = tested on: HeLa cells (derived from human uterine cervix cancer); assay: Intracellular translocation into HeLa cell, confocal laser microscope; assay type: cell-based; conditions: overall conclusion
Description: Whether SOR could translocate into cells and further into the nuclei was studied using fluorescently labeled SOR. […] Also, BSA labeled with FITC in the same manner as above was used as a control.
The same experiment as in the section (1) was also conducted for HeLa cells (derived from human uterine cervix cancer). A HeLa suspension prepared at approximately 2.2×10^4 cells/mL was added at 270 μL/well to 8-well chamber cover glass (Eppendorf) to make approximately 6.0×10^3 cells/well, followed by preculture at 37° C. for 24 hours in a 5% CO2 incubator. […] The cells thus supplemented with the sample was subjected to fixing and permeabilization treatment over each time period from 30 minutes to 16 hours, and stained with DAPI. Then, a mount was prepared.

[8] = tested on: HeLa cells; assay: Cytotoxicity of SOR, Cell Counting Kit-8 (WST-8); assay type: cell-based, human; conditions: ratio of cytotoxicity, HeLa versus L1210
Description: The cytotoxicity of SOR was evaluated using L1210 (RBRC-RCB2844, Riken) and HeLa (RBRC-RCB0007, Riken) cells. RPMI1640 medium supplemented with 10% FBS was used for the L1210 cells, and EMEM supplemented with 10% FBS was used for the HeLa cells. The cells were precultured for 3 days (L1210) or 7 days (HeLa) using a CO2 incubator (37° C., 5% CO2). […]. SOR dissolved in a medium (200 μg/mL) was filtered ([…]), and serially diluted 2-fold, and the diluted products were added to wells in an amount of 10 μL/well such that the final concentration of SOR was 50 to 0.024 μg/mL. The cells of each line were incubated for 48 hours, and the growth of the cells was quantified using Cell Counting Kit-8 (Dojindo Laboratories Co., Ltd.) based on the WST-8 method according to manufacturer's protocol. Absorption at 450 nm was measured using a microplate reader, and a mean of triplicate data was plotted to prepare a concentration-response curve, followed by analysis using Prism software. […].

[9] = tested on: Aplysia kurodai eggs; assay: Toxicity in Aplysia kurodai egg (influence on cleavage and development); assay type: in vivo
Description: Eggs were taken out of a newly deposited egg mass of Aplysia kurodai, and influence on cleavage was examined using the collected eggs. Eggs were taken out of the egg mass in artificial seawater (ASW) and gently centrifuged by hand centrifuge apparatus. The precipitated eggs were rinsed with ASW twice. Filtered natural seawater was added to a 24-well plate (2 mL/well), to which SOR (10 μL/well) and subsequently the liquid containing the eggs (20 μL/well) were added. Then, egg development was observed under microscope every few hours. […] Untreated control eggs underwent the second cleavage 6 hours after fertilization and developed into morula in 24 hours; […].

[10] = Isoelectric point by two-dimensional polyacrylamide gel electrophoresis (2-DE); assay type: physicochemical; conditions: IPG Strip 3-6
Description: Next, the isoelectric point of SOR was determined by two-dimensional polyacrylamide gel electrophoresis (2-DE). First, 443 μg of a sample was mixed with a rehydration solution (8 M urea, 0.5% 3-[(3-cholamidopropyl)dimethylammonio]-prop anesulfonic acid (CHAPS), 0.5% Bio-Lyte 3/10 (Bio-Rad Laboratories, Inc.), 0.2% dithiothreitol, 0.002% bromophenol blue). The obtained solution was applied to IPG Strip 3-6 (Bio-Rad Laboratories, Inc.). Isoelectric focusing electrophoresis was performed at 20° C. as follows: rehydration for 12 hours, 300 V for 30 minutes, 1000 V for 30 minutes, and 5000 V for 2 hours. After electrophoresis, the strip was equilibrated for 15 minutes with shaking in 2% SDS, 50 mM Tris-HCl, pH 8.8, 6 M urea, 30% glycerol, and 0.25% DTT. Subsequently, the strip was re-equilibrated for 15 minutes with shaking in 2% SDS, 50 mM Tris-HCl, pH 8.8, 6 M urea, 30% glycerol, and 4.5% iodoacetamide. The strip was put on a 12% polyacrylamide gel, and the second electrophoresis was performed in the same manner as in SDS-PAGE. The gel was stained with a silver staining kit (Wako Pure Chemical Industries, Ltd.).

**Q.** With `C=C1[C@@H](C)[C@H]2[C@H](Cc3ccccc3)NC(=O)[C@]23[C@H](OC(C)=O)/C=C/[C@@](C)(O)C(=O)[C@@H](C)C/C=C/[C@H]3[C@@H]1O` [Cytochalasin D] as the molecule, how does the IC50 ([1]; Miranda et al. 1974) read?
**A.** 100 nM

**Q.** For `C=CC[C@H](C)[C@H](C)C[C@@H](O)[C@H](O)[C@@H]1CC[C@@]2(C)O[C@@]3(C)C[C@@]4(C)O[C@H]5/C=C\C[C@H]6O[C@H]7C[C@H]8O[C@H]9C[C@@]%10(C)O[C@@](C)([C@@H]%11CC[C@H]%12O[C@@]%13(C)C[C@H]%14O[C@@]%15(C)C[C@H]%16O[C@@]%17(C)C[C@@H](O)[C@H]([C@@H]%18O[C@H]%19[C@H](O)[C@@H](O)[C@H](C[C@H](O)C[C@@H](O)[C@@H]%20O[C@H]%21[C@H](O)[C@@H](O)[C@H]([C@@H]%22O[C@@H]%23[C@H](O)[C@H]%24O[C@H]%25C[C@H]%26O[C@@H](C[C@H](O)[C@@H](O)[C@H]%27O[C@H]%28[C@H](O)[C@H]%29O[C@H]%30C[C@H]%31O[C@H]%32[C@@H](O)[C@@H](O)[C@H]([C@H](C)[C@H](O)[C@H](C)CC[C@H](OS(=O)(=O)[O-])[C@H](O)[C@H](C)C[C@@H](O)C(=C)/C(C)=C/CO)O[C@@H]%32[C@H](O)C[C@]%31(C)O[C@@H]%30C[C@]%29(C)O[C@@H]%28C[C@H]%27O)[C@H](OS(=O)(=O)[O-])[C@H](O)[C@@H]%26O[C@@H]%25C[C@@H]%24O[C@H]%23[C@H](O)[C@H]%22O)O[C@H]%21C[C@H]%20O)O[C@H]%19C[C@H]%18O)O[C@@H]%17[C@H](O)[C@]%16(C)O[C@@H]%15CC[C@]%14(C)O[C@@H]%13C[C@@H]%12O%11)[C@H](O)C[C@@H]%10O[C@]9(C)CC[C@]8(C)O[C@]7(C)C[C@@H]6O[C@@H]5C[C@@H]4O[C@@H]3C[C@@H]2O1.[Na+].[Na+]` [Maito toxin], which Lethal dose [2] is on record?
**A.** 37.9 pmol/kg

**Q.** What about the IC50 [3] of the same molecule?
**A.** ~0.058 nM

**Q.** With `CC(=O)O[C@H]1C(=O)[C@@]2(C)[C@H]([C@H](OC(=O)c3ccccc3)[C@]3(O)C[C@H](OC(=O)[C@H](O)[C@@H](NC(=O)c4ccccc4)c4ccccc4)C(C)=C1C3(C)C)[C@]1(OC(C)=O)CO[C@@H]1C[C@@H]2O` [Paclitaxel] as the molecule, how does the IC50 ([1]; Liebmann et al. 1993) read?
**A.** 2.6 nM

**Q.** For `CO[C@H]1C[C@H](CC[C@H](C)[C@H](O)[C@H](C)[C@H]2OC(=O)/C=C/C(C)=C/C[C@H](O)C[C@@H]3C=CC[C@@H](C[C@H](OC)[C@@H](C)[C@@H](O)C[C@@H](O)[C@H](C)[C@@H]([C@@H](C)[C@@H](O)[C@@H](C)CC[C@H]4C[C@H](OC)C[C@H](C)O4)OC(=O)/C=C/C(C)=C/C[C@H](O)C[C@@H]4C=CC[C@@H](C[C@H](OC)[C@@H](C)[C@@H](O)C[C@@H](O)[C@@H]2C)O4)O3)O[C@@H](C)C1` [Swinholide A], which IC50 [4] is on record?
**A.** 22 nM

B1: soritesidine (protein)
chain: HFSLKRQDSSITHQTVSIFCITILLLSVSAYFPNSIPEAQAKLGDQRQIDIASWNTFDFGGKFGGVCKANDPTILQAMTDVISQHDVILVQEIANVTNPCNPANIFSGFNNLCSNNYLGGLGYLCQDTGIVGSGEGYGIIYKNNTGIGNVVIERTDNPNTVPYIPAGGGNNQMKRPPMKATLDFNAGAFNVVVYNAHTSPSGGVPKEIKLLSDRISPAHNPLDKNAVITLGDLNADGKRRLPNGQLDHGTDYYRGGFAAHPNDFPVSGWQQTVTDTDVTNFAQTLRAYDRMILSNATHNSYDEYGIIGGIPNPLPYPGGVYPAGTLFKNVHTGGGNTGKALSDHRLIWSKLNYGAIETTDNNGNTKSNFVEFTNPPQCTAPDTVYAKGADFVPNRTVDIYITKQPDNQNFIPLPQPQNPTNPGQFKQVGESYQLTDVRTTGKSTHNIDANGNIANTAVWVQPTPNQQYNLIVDVDRDGYFTNSIDIVDAFNTQGFDVDPCLRKRLAASLSDGIPAGDGTRDFVKPPKIFISGDWFPQGSARIYIIIYDKNFDYNGNDSKVLTDVRGTYDTITVGENHKFTGLEWSSPHVGNYNIIFDANSDGVYKKSDGDIVDHINEIGFAMLESYPHHSHIVDLDDNANQREDFNSGIAKNVYVLATNLPNPSTIVDVYVISEKLLKLNNPGWTTWQQSSNVPLKESAAPTNNGDRLHPTWVTPQKTVFGSVWHMPGDTFDPPYINYYGKKFTIVIDVNRDGKYDPSIDMVDTHDIGDMTDWFITQGHHDLSPTSGNGQPAVSEYKEYLNSKLDLENPLDNTNNYDAATEAASAQYLCRTNLPINLFENVIELGAQTGFIMFNPDEYYAGRDLNSGRHIYDAVDFDGLEINDGYTSVISAKEMTLNRLGVGQNSNLLTCGADTVTIDGMSTQKDSTTNIVAKTISHKSNISLEADTCTHYTHNLYFESDTNILVKAIESPFAWIIDVGDRILPGTGC
**Q.** With B1 as the molecule, how does the “cleavage of DNA” value [5] read?
**A.** cleaved DNA in a metal ion-dependent manner

**Q.** And the Lethal dose [6]?
**A.** 1.60 pmol/kg

**Q.** What about the acute toxicity [6] of the same molecule?
**A.** no acute toxicity was observed

**Q.** And the “dosage causing lethal toxicity” value [6]?
**A.** 5.74 ng/mouse

**Q.** What about the time to death ([6]; 574 ng of SOR) of the same molecule?
**A.** 18 h

**Q.** And the “time to loss of normal posture” value ([6]; 574 ng of SOR)?
**A.** 17 h

**Q.** What about the “time to loss of voluntary movement” value ([6]; 574 ng of SOR) of the same molecule?
**A.** 14 h

**Q.** And the “eye observation after administration” value ([6]; 14 hours or later after administration)?
**A.** Reddish ring around eyes was observed

**Q.** And the intracellular translocation [7]?
**A.** intracellular translocation of SOR was confirmed

**Q.** And the “selectivity for the HeLa cells over the L1210 cells” value [8]?
**A.** approximately 200 times

**Q.** What about the “influence on egg cleavage and development” value ([9]; SOR 1.3 ng/mL) of the same molecule?
**A.** overall shape of the cells was shrunken and bubble-like protrusions on the cell surface were often observed, though development progressed

**Q.** And the “influence on egg cleavage and development” value ([9]; SOR 1.3 μg/mL, 24 hours)?
**A.** only two blastomeres were observed even 24 hours later

**Q.** And the “influence on the morphology of the eggs” value ([9]; varying SOR concentrations)?
**A.** concentration-dependent influence on the morphology of the eggs

**Q.** And the “isoelectric point (pI)” value [10]?
**A.** approximately 4.5
